Assay results from ChEMBL document CHEMBL3425448, “Synthesis of hydrolysis-resistant pyridoxal 5'-phosphate analogs and their biochemical and X-ray crystallographic characterization with the pyridoxal phosphatase chronophin” (Bioorg Med Chem, 2015).

Tests used:
[1] = compound: Cc1ncc(/C=C/P(=O)(O)O)c(C=O)c1O; assay: (§1) Inhibition of recombinant mouse brain PDXP-mediated pyridoxal 5' phosphate hydrolysis expressed in Escherichia coli BL21 (DE3) cells assessed as enzyme Km at 0.1 mM preincubated for 4 mins followed by substrate addition measured after 2 mins
[2] = compound: Cc1ncc(/C=C/P(=O)(O)O)c(CO)c1O; assay: as §1
[3] = compound: Cc1ncc(CCP(=O)(O)O)c(C=O)c1O; assay: as §1
[4] = compound: Cc1ncc(CCP(=O)(O)O)c(CO)c1O; assay: as §1
[5] = compound: Cc1ncc(/C=C/P(=O)(O)O)c(C=O)c1O; assay: (§2) Inhibition of recombinant mouse brain PDXP-mediated pyridoxal 5' phosphate hydrolysis expressed in Escherichia coli BL21 (DE3) cells assessed as enzyme Vmax at 0.1 mM preincubated for 4 mins followed by substrate addition measured after 2 mins
[6] = compound: Cc1ncc(/C=C/P(=O)(O)O)c(CO)c1O; assay: as §2
[7] = compound: Cc1ncc(CCP(=O)(O)O)c(C=O)c1O; assay: as §2
[8] = compound: Cc1ncc(CCP(=O)(O)O)c(CO)c1O; assay: as §2
[9] = compound: Cc1ncc(/C=C/P(=O)(O)O)c(C=O)c1O; assay: (§3) Inhibition of recombinant mouse brain PDXP-mediated pyridoxal 5' phosphate hydrolysis expressed in Escherichia coli BL21 (DE3) cells assessed as enzyme Kcat at 0.1 mM preincubated for 4 mins followed by substrate addition measured after 2 mins
[10] = compound: Cc1ncc(/C=C/P(=O)(O)O)c(CO)c1O; assay: as §3
[11] = compound: Cc1ncc(CCP(=O)(O)O)c(C=O)c1O; assay: as §3
[12] = compound: Cc1ncc(CCP(=O)(O)O)c(CO)c1O; assay: as §3
[13] = compound: Cc1ncc(/C=C/P(=O)(O)O)c(C=O)c1O; assay: (§4) Inhibition of recombinant mouse brain PDXP-mediated pyridoxal 5' phosphate hydrolysis expressed in Escherichia coli BL21 (DE3) cells assessed as ratio of enzyme Kcat/Km at 0.1 mM preincubated for 4 mins followed by substrate addition measured after 2 mins
[14] = compound: Cc1ncc(/C=C/P(=O)(O)O)c(CO)c1O; assay: as §4
[15] = compound: Cc1ncc(CCP(=O)(O)O)c(C=O)c1O; assay: as §4
[16] = compound: Cc1ncc(CCP(=O)(O)O)c(CO)c1O; assay: as §4
[17] = compound: Cc1ncc(/C=C/P(=O)(O)O)c(C=O)c1O; assay: (§5) Inhibition of recombinant mouse brain PDXP-mediated pyridoxal 5' phosphate hydrolysis expressed in Escherichia coli BL21 (DE3) cells assessed as enzyme Km at 0.5 mM preincubated for 4 mins followed by substrate addition measured after 2 mins
[18] = compound: Cc1ncc(/C=C/P(=O)(O)O)c(CO)c1O; assay: as §5
[19] = compound: Cc1ncc(CCP(=O)(O)O)c(C=O)c1O; assay: as §5
[20] = compound: Cc1ncc(CCP(=O)(O)O)c(CO)c1O; assay: as §5
[21] = compound: Cc1ncc(/C=C/P(=O)(O)O)c(C=O)c1O; assay: (§6) Inhibition of recombinant mouse brain PDXP-mediated pyridoxal 5' phosphate hydrolysis expressed in Escherichia coli BL21 (DE3) cells assessed as enzyme Vmax at 0.5 mM preincubated for 4 mins followed by substrate addition measured after 2 mins
[22] = compound: Cc1ncc(/C=C/P(=O)(O)O)c(CO)c1O; assay: as §6
[23] = compound: Cc1ncc(CCP(=O)(O)O)c(C=O)c1O; assay: as §6
[24] = compound: Cc1ncc(CCP(=O)(O)O)c(CO)c1O; assay: as §6
[25] = compound: Cc1ncc(/C=C/P(=O)(O)O)c(C=O)c1O; assay: (§7) Inhibition of recombinant mouse brain PDXP-mediated pyridoxal 5' phosphate hydrolysis expressed in Escherichia coli BL21 (DE3) cells assessed as enzyme Kcat at 0.5 mM preincubated for 4 mins followed by substrate addition measured after 2 mins
[26] = compound: Cc1ncc(/C=C/P(=O)(O)O)c(CO)c1O; assay: as §7
[27] = compound: Cc1ncc(CCP(=O)(O)O)c(C=O)c1O; assay: as §7
[28] = compound: Cc1ncc(CCP(=O)(O)O)c(CO)c1O; assay: as §7
[29] = compound: Cc1ncc(/C=C/P(=O)(O)O)c(C=O)c1O; assay: (§8) Inhibition of recombinant mouse brain PDXP-mediated pyridoxal 5' phosphate hydrolysis expressed in Escherichia coli BL21 (DE3) cells assessed as ratio of enzyme Kcat/Km at 0.5 mM preincubated for 4 mins followed by substrate addition measured after 2 mins
[30] = compound: Cc1ncc(/C=C/P(=O)(O)O)c(CO)c1O; assay: as §8
[31] = compound: Cc1ncc(CCP(=O)(O)O)c(C=O)c1O; assay: as §8
[32] = compound: Cc1ncc(CCP(=O)(O)O)c(CO)c1O; assay: as §8
[33] = compound: Cc1ncc(/C=C/P(=O)(O)O)c(C=O)c1O; assay: (§9) Inhibition of recombinant mouse brain PDXP-mediated pyridoxal 5' phosphate hydrolysis expressed in Escherichia coli BL21 (DE3) cells assessed as enzyme Km at 1 mM preincubated for 4 mins followed by substrate addition measured after 2 mins
[34] = compound: Cc1ncc(/C=C/P(=O)(O)O)c(CO)c1O; assay: as §9
[35] = compound: Cc1ncc(CCP(=O)(O)O)c(C=O)c1O; assay: as §9
[36] = compound: Cc1ncc(CCP(=O)(O)O)c(CO)c1O; assay: as §9
[37] = compound: Cc1ncc(/C=C/P(=O)(O)O)c(C=O)c1O; assay: (§10) Inhibition of recombinant mouse brain PDXP-mediated pyridoxal 5' phosphate hydrolysis expressed in Escherichia coli BL21 (DE3) cells assessed as enzyme Vmax at 1 mM preincubated for 4 mins followed by substrate addition measured after 2 mins
[38] = compound: Cc1ncc(/C=C/P(=O)(O)O)c(CO)c1O; assay: as §10
[39] = compound: Cc1ncc(CCP(=O)(O)O)c(C=O)c1O; assay: as §10
[40] = compound: Cc1ncc(CCP(=O)(O)O)c(CO)c1O; assay: as §10
[41] = compound: Cc1ncc(/C=C/P(=O)(O)O)c(C=O)c1O; assay: (§11) Inhibition of recombinant mouse brain PDXP-mediated pyridoxal 5' phosphate hydrolysis expressed in Escherichia coli BL21 (DE3) cells assessed as enzyme Kcat at 1 mM preincubated for 4 mins followed by substrate addition measured after 2 mins
[42] = compound: Cc1ncc(/C=C/P(=O)(O)O)c(CO)c1O; assay: as §11
[43] = compound: Cc1ncc(CCP(=O)(O)O)c(C=O)c1O; assay: as §11
[44] = compound: Cc1ncc(CCP(=O)(O)O)c(CO)c1O; assay: as §11
[45] = compound: Cc1ncc(/C=C/P(=O)(O)O)c(C=O)c1O; assay: (§12) Inhibition of recombinant mouse brain PDXP-mediated pyridoxal 5' phosphate hydrolysis expressed in Escherichia coli BL21 (DE3) cells assessed as ratio of enzyme Kcat/Km at 1 mM preincubated for 4 mins followed by substrate addition measured after 2 mins
[46] = compound: Cc1ncc(/C=C/P(=O)(O)O)c(CO)c1O; assay: as §12
[47] = compound: Cc1ncc(CCP(=O)(O)O)c(C=O)c1O; assay: as §12
[48] = compound: Cc1ncc(CCP(=O)(O)O)c(CO)c1O; assay: as §12
[49] = compound: Cc1ncc(/C=C/P(=O)(O)O)c(C=O)c1O; assay: (§13) Inhibition of recombinant mouse brain PDXP-mediated pyridoxal 5' phosphate hydrolysis expressed in Escherichia coli BL21 (DE3) cells assessed as enzyme Km at 2 mM preincubated for 4 mins followed by substrate addition measured after 2 mins
[50] = compound: Cc1ncc(/C=C/P(=O)(O)O)c(CO)c1O; assay: as §13
[51] = compound: Cc1ncc(CCP(=O)(O)O)c(C=O)c1O; assay: as §13
[52] = compound: Cc1ncc(CCP(=O)(O)O)c(CO)c1O; assay: as §13
[53] = compound: Cc1ncc(/C=C/P(=O)(O)O)c(C=O)c1O; assay: (§14) Inhibition of recombinant mouse brain PDXP-mediated pyridoxal 5' phosphate hydrolysis expressed in Escherichia coli BL21 (DE3) cells assessed as enzyme Vmax at 2 mM preincubated for 4 mins followed by substrate addition measured after 2 mins
[54] = compound: Cc1ncc(/C=C/P(=O)(O)O)c(CO)c1O; assay: as §14
[55] = compound: Cc1ncc(CCP(=O)(O)O)c(C=O)c1O; assay: as §14
[56] = compound: Cc1ncc(CCP(=O)(O)O)c(CO)c1O; assay: as §14
[57] = compound: Cc1ncc(/C=C/P(=O)(O)O)c(C=O)c1O; assay: (§15) Inhibition of recombinant mouse brain PDXP-mediated pyridoxal 5' phosphate hydrolysis expressed in Escherichia coli BL21 (DE3) cells assessed as enzyme Kcat at 2 mM preincubated for 4 mins followed by substrate addition measured after 2 mins
[58] = compound: Cc1ncc(/C=C/P(=O)(O)O)c(CO)c1O; assay: as §15
[59] = compound: Cc1ncc(CCP(=O)(O)O)c(C=O)c1O; assay: as §15
[60] = compound: Cc1ncc(CCP(=O)(O)O)c(CO)c1O; assay: as §15
[61] = compound: Cc1ncc(/C=C/P(=O)(O)O)c(C=O)c1O; assay: (§16) Inhibition of recombinant mouse brain PDXP-mediated pyridoxal 5' phosphate hydrolysis expressed in Escherichia coli BL21 (DE3) cells assessed as ratio of enzyme Kcat/Km at 2 mM preincubated for 4 mins followed by substrate addition measured after 2 mins
[62] = compound: Cc1ncc(/C=C/P(=O)(O)O)c(CO)c1O; assay: as §16
[63] = compound: Cc1ncc(CCP(=O)(O)O)c(C=O)c1O; assay: as §16
[64] = compound: Cc1ncc(CCP(=O)(O)O)c(CO)c1O; assay: as §16

B1: Chronophin (Mus musculus), P60487 (protein)
chain: MARCERLRGAALRDVLGQAQGVLFDCDGVLWNGERIVPGAPELLQRLARAGKNTLFVSNNSRRARPELALRFARLGFAGLRAEQLFSSALCAARLLRQRLSGPPDASGAVFVLGGEGLRAELRAAGLRLAGDPGEDPRVRAVLVGYDEQFSFSRLTEACAHLRDPDCLLVATDRDPWHPLSDGSRTPGTGSLAAAVETASGRQALVVGKPSPYMFQCITEDFSVDPARTLMVGDRLETDILFGHRCGMTTVLTLTGVSSLEEAQAYLTAGQRDLVPHYYVESIADLMEGLED
- Km [1]: 78 µM
- Km [2]: 44 µM
- Km [3]: 72 µM
- Km [4]: 59 µM
- Vmax [5]: 3580 nmol/min/mg
- Vmax [6]: 3300 nmol/min/mg
- Vmax [7]: 3590 nmol/min/mg
- Vmax [8]: 3740 nmol/min/mg
- kcat [9]: 1.9 s⁻¹
- kcat [10]: 1.8 s⁻¹
- kcat [11]: 1.9 s⁻¹
- kcat [12]: 2 s⁻¹
- kcat/Km [13]: 2.4 ×10⁴ /s/M
- kcat/Km [14]: 4 ×10⁴ /s/M
- kcat/Km [15]: 2.7 ×10⁴ /s/M
- kcat/Km [16]: 3.3 ×10⁴ /s/M
- Km [17]: 170 µM
- Km [18]: 77 µM
- Km [19]: 170 µM
- Km [20]: 83 µM
- Vmax [21]: 2990 nmol/min/mg
- Vmax [22]: 3230 nmol/min/mg
- Vmax [23]: 3280 nmol/min/mg
- Vmax [24]: 3680 nmol/min/mg
- kcat [25]: 1.6 s⁻¹
- kcat [26]: 1.7 s⁻¹
- kcat [27]: 1.7 s⁻¹
- kcat [28]: 2 s⁻¹
- kcat/Km [29]: 0.9 ×10⁴ /s/M
- kcat/Km [30]: 2.2 ×10⁴ /s/M
- kcat/Km [31]: 1 ×10⁴ /s/M
- kcat/Km [32]: 2.4 ×10⁴ /s/M
- Km [33]: 248 µM
- Km [34]: 112 µM
- Km [35]: 197 µM
- Km [36]: 98 µM
- Vmax [37]: 2300 nmol/min/mg
- Vmax [38]: 3150 nmol/min/mg
- Vmax [39]: 2620 nmol/min/mg
- Vmax [40]: 3440 nmol/min/mg
- kcat [41]: 1.2 s⁻¹
- kcat [42]: 1.7 s⁻¹
- kcat [43]: 1.4 s⁻¹
- kcat [44]: 1.8 s⁻¹
- kcat/Km [45]: 0.5 ×10⁴ /s/M
- kcat/Km [46]: 1.5 ×10⁴ /s/M
- kcat/Km [47]: 0.7 ×10⁴ /s/M
- kcat/Km [48]: 1.9 ×10⁴ /s/M
- Km [49]: 224 µM
- Km [50]: 181 µM
- Km [51]: 246 µM
- Km [52]: 136 µM
- Vmax [53]: 1640 nmol/min/mg
- Vmax [54]: 3070 nmol/min/mg
- Vmax [55]: 2130 nmol/min/mg
- Vmax [56]: 3150 nmol/min/mg
- kcat [57]: 0.9 s⁻¹
- kcat [58]: 1.6 s⁻¹
- kcat [59]: 1.1 s⁻¹
- kcat [60]: 1.7 s⁻¹
- kcat/Km [61]: 0.4 ×10⁴ /s/M
- kcat/Km [62]: 0.9 ×10⁴ /s/M
- kcat/Km [63]: 0.5 ×10⁴ /s/M
- kcat/Km [64]: 1.2 ×10⁴ /s/M
